Positions count from the first letter of the chain named.

The target of assay [1] is T1, human ICOS on human T cells (human, UniProt Q9Y6W8 21-167).
T1 construct: endogenous receptor on primary cells; also called ICOS on CD4+ and CD8+ T cells of healthy human donors
T1 sequence: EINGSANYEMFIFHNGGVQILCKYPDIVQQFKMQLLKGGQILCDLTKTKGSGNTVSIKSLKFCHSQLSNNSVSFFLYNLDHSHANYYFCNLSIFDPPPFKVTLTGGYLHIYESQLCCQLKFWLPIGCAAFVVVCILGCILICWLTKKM
Put plainly: flow cytometry, activated human CD8 T cells, percent FITC positive, mean of donors. As to the method: (§1) Either naive and/or activated CD3+ T cells were re-suspended in PBS with 0.1% BSA (FACS Buffer) containing Human FcR Blocking Solution at 2×10⁶ cells/mL (5 μl FcR Blocking Solution+[…] FACS Buffer per 1 mL). At a concentration of 2×10⁵ cells/well, 100 μl cells were placed into 2 mL 96 well Assay Blocks and incubated at room temperature for 15 minutes. During the incubation, a titration of the binding antibodies, anti-ICOS (H2L5 hIgG4PE) or IgG4 Isotype Control antibody was prepared as a 2× concentration. […] Following the binding incubation, cells were washed twice in 1 mL of FACS buffer, centrifuging at 400×g for 5 minutes at room temperature.
(§2) Data acquisition and compensation were performed on BD FACS instruments, LSR Fortessa X-20 or FACS Canto II using BD Diva (ver. 8.0) software. Data analysis employed Flow Jo software (ver.10.0.8r1). Results are reported as both MFI (Median Fluorescence Intensity) and Percent of cells positive for human IgG kappa light chain FITC staining out of the total live cells or appropriate parent population. EC50s were determined using Graphpad Prism 5 software (ver. 5.04) with non-linear regression of transformed data (X=(log(X)) using a variable slope with 4 parameters (log(Agonist) vs. response—Variable slope).
For orientation: A flow cytometer gives signals particle by particle.

Assay [2] addresses T1, human ICOS on human T cells. Put plainly: flow cytometry, activated human CD8 T cells, percent FITC positive, donor 1173F42. As to the method:
as §1, §2

Assay [3] has the same target. Put plainly: flow cytometry, activated human CD8 T cells, FITC MFI, donor 1124F36. How it is done:
(§3) Binding of H2L5 hIgG4PE was assessed in both naive and activated CD3+ T cells.
as §1, §2

For assay [4] the target is unchanged. As to the kind of experiment: flow cytometry, activated human CD4 T cells, percent FITC positive, mean of donors. How it is done:
as §3, §1, §2

Another assay concerns the target T2, human FcγR IIa R131 (human, UniProt P12318 36-218, limits assumed).
T2 sequence (looked up): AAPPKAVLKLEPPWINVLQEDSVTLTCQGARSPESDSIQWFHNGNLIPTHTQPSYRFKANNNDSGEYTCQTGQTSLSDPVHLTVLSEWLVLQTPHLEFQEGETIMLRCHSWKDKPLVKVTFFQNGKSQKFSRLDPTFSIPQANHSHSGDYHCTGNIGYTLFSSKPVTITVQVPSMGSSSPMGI
Put plainly: affinity to human Fcγ receptors; method not described.

In a further assay the target is T3, human FcγR IIb (human, UniProt P31994 46-217, limits assumed).
T3 sequence (looked up): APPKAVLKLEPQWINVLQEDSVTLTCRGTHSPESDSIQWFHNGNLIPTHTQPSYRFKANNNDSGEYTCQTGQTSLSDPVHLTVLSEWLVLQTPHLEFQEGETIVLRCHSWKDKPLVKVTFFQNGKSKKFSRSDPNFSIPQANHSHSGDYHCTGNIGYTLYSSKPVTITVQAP
Described as above.

Another assay addresses T4, human FcγR I (human, UniProt P12314 16-288, limits assumed).
T4 construct: also called CD64
The description is as above.

The target in assay [5] is T1, human ICOS on human T cells. Put plainly: flow cytometry, activated human CD8 T cells, FITC MFI, donor 1149M52. As to the method:
as §3, §1, §2

The target in another assay is T5, human ICOS (human, UniProt Q9Y6W8 21-140, limits assumed).
T5 sequence: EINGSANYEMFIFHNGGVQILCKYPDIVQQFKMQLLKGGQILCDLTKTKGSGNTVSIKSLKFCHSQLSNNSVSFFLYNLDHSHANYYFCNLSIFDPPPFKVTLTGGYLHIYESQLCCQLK
As to the kind of experiment: MSD competition assay: inhibition of ICOS-L binding to ICOS by titrated antibody, bar chart in raw luminescence units.

The target in the next assay is T6, human FcγR IIIa F158 (human, UniProt P08637 17-208).
T6 construct: allotype with Phe at position 158 as printed
As to the kind of experiment: affinity to human Fcγ receptors (Table 6; NB = no binding); method not described.

The target in the next assay is T7, human FcγR IIa H131 (human, UniProt P12318 36-218, limits assumed).
T7 sequence (looked up): T2 sequence (looked up) with R132H
Described as above.

The next assay has as its target T8, human FcγR IIIa V158 (human, UniProt P08637 17-208).
T8 construct: allotype with Val at position 158 as printed
Described as above.

Assay [6] concerns the target T1, human ICOS on human T cells. Put plainly: flow cytometry, activated human CD4 T cells, percent FITC positive, donor 1149M52. How it is done: as §3, §1, §2
The target is the same in assay [7]. Put plainly: flow cytometry, activated human CD4 T cells, percent FITC positive, donor 1124F36. How it is done:
as §3, §1, §2

Assay [8] shares this target. As to the kind of experiment: flow cytometry, activated human CD4 T cells, FITC MFI, donor 1124F36. As to the method:
as §3, §1, §2

For assay [9] the target is unchanged. As to the kind of experiment: flow cytometry, activated human CD4 T cells, FITC MFI, donor 1173F42. As to the method:
as §1, §2

T8 sequence (P08637 17-208 F176V limits assumed): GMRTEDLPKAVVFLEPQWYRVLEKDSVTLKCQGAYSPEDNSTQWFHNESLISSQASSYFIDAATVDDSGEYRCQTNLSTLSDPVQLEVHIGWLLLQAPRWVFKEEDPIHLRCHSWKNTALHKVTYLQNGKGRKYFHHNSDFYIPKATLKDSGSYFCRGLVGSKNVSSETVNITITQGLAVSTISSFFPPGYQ
T4 sequence (P12314 16-288 limits assumed): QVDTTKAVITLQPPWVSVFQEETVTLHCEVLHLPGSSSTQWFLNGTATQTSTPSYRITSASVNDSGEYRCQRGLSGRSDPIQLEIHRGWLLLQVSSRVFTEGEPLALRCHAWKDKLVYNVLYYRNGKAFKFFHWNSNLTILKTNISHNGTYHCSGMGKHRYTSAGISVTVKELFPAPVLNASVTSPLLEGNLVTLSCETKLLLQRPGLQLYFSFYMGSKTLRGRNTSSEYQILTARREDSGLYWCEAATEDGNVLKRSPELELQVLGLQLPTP
T6 sequence (P08637 17-208 limits assumed): as the sequence (P08637 17-208 F176V limits assumed) above, with V160F counted along it

B1: H2L5 hIgG4PE (antibody)
heavy: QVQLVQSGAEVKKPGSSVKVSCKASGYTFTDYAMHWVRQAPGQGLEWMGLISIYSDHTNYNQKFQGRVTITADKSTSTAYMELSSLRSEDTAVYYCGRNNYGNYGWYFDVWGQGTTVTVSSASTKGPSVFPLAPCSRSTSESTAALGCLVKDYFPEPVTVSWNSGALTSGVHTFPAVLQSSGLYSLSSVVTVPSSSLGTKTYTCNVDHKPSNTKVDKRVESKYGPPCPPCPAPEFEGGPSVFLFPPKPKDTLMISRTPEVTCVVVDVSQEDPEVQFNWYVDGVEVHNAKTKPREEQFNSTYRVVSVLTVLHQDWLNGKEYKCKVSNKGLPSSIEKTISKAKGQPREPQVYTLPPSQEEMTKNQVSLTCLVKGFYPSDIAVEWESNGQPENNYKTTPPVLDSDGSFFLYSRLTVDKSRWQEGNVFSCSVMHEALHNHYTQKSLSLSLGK
light: EIVLTQSPATLSLSPGERATLSCSASSSVSYMHWYQQKPGQAPRLLIYDTSKLASGIPARFSGSGSGTDYTLTISSLEPEDFAVYYCFQGSGYPYTFGQGTKLEIKRTVAAPSVFIFPPSDEQLKSGTASVVCLLNNFYPREAKVQWKVDNALQSGNSQESVTEQDSKDSTYSLSSTLTLSKADYEKHKVYACEVTHQGLSSPVTKSFNRGEC
notes: also called 422 H2L5 hIgG4PE; H2L5 IgG4PE; copies: 2 + 2
In general, EC50 refers to the concentration at which the effect is half-maximal. As usually defined, the Kd is the constant that tells how readily two partners part at equilibrium. Low readings indicate tighter binding, high ones weaker binding. In the case of B1, the EC50 in assay [1] stood at 0.692 µg/mL; in assay [2], 0.371 µg/mL; in assay [3] it was 0.564 µg/mL; in [4], 0.763 µg/mL; in [5], 0.74 µg/mL; in assay [6] it was 0.882 µg/mL. The EC50 in [7] is 0.45 µg/mL; in assay [8] it was 0.628 µg/mL; in assay [9], 0.636 µg/mL. Moreover, the equilibrium dissociation constant (Kd) with human FcγR IIa R131 stood at 2500 nM; with human FcγR IIb, 1470 nM; with human FcγR I, 645 nM. For the same molecule, the “IC50 (read off the curve)” value with human ICOS was approximately 2 µg/mL. The binding result with human FcγR IIIa F158, with human FcγR IIa H131 and in the assay with human FcγR IIIa V158 was “no binding” throughout.
